Laboratory results taken from patent publication US20240174727A1, “LONG-ACTING NATRIURETIC PEPTIDES AND USES THEREOF” (Eli Lilly and Company, priority 2022, published 2024).
Numbered stars: 1 amine (or outer) side, 2 acyl side, 3 side chain; on linkers, the order of the positions; unused ones are H or OH. Bridge positions count the residues as written; N and C are the ends. Square brackets hold non-standard residues; d marks the D form. Primed or numbered codes have the meaning given here. * marks the point of attachment. thioacetal = thioacetal linkage between two cysteines (intrachain bond at the bracketed Cys); C20 diacid = O=C(O)CCCCCCCCCCCCCCCCCCC(=O)*; γGlu = O=C(O)[C@H](CCC(=O)[*:2])N[*:1]; 4Pal = N[C@@H](Cc1ccncc1)C(=O)O; thioacetal″ = not defined here; Aib = CC(C)(N)C(=O)O; βAla = NCCC(=O)O

T1: human NPRA (human, UniProt P16066 33-1061)
T1 sequence (looked up): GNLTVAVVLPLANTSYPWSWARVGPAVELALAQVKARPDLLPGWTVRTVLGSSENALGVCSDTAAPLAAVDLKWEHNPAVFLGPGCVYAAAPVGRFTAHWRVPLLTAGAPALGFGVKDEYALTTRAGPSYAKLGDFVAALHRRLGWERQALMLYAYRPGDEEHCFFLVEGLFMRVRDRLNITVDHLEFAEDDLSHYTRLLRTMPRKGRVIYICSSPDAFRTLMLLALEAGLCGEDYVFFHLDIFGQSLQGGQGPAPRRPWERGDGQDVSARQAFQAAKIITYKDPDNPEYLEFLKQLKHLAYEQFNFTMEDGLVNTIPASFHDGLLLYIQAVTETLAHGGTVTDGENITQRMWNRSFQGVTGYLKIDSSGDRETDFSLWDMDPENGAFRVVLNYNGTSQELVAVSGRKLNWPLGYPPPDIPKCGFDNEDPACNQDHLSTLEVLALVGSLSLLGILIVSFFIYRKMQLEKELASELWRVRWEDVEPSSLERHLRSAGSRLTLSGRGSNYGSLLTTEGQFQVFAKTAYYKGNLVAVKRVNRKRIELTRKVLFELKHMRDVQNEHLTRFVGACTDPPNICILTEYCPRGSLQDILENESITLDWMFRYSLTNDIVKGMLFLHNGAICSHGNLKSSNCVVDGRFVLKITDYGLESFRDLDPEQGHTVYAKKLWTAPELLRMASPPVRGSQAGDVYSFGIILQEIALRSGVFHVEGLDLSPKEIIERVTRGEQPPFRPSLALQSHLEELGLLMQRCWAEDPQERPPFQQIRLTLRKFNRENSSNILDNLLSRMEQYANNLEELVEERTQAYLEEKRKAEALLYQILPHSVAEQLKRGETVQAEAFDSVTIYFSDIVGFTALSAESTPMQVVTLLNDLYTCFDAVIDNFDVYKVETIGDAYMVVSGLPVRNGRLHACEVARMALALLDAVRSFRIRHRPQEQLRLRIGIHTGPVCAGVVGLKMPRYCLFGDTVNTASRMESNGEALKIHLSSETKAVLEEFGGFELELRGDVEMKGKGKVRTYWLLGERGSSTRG

T2: rat NPRA (rat, UniProt P18910 29-1057)
T2 sequence (looked up): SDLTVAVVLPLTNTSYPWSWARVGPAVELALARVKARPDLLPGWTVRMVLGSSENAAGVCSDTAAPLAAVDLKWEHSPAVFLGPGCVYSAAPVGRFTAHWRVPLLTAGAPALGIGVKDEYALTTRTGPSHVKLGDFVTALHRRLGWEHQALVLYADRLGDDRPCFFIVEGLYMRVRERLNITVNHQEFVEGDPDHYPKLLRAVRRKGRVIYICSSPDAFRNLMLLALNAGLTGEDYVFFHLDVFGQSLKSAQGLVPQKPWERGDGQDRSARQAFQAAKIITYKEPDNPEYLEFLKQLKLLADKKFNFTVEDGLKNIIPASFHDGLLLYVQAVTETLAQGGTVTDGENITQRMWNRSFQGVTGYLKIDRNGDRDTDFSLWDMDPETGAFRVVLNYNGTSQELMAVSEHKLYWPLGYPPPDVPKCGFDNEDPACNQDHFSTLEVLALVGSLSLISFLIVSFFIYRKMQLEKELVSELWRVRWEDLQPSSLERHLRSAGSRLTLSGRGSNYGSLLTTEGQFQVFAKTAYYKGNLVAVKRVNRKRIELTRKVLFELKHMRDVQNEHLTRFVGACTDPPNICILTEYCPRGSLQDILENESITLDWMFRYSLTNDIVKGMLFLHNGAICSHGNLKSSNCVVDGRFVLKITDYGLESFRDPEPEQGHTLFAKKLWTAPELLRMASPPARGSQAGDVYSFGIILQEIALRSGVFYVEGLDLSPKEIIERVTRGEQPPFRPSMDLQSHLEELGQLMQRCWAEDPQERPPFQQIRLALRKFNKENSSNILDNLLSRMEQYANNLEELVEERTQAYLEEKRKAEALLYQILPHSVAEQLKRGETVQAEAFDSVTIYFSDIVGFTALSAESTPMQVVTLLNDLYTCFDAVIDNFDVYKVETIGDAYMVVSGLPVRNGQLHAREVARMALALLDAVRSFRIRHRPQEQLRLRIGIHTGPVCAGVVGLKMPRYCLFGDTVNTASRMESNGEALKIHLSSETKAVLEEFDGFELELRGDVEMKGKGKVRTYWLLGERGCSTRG


Columns and labels:
human NPRA = biological target: T1, human NPRA; experiment: cell-based or functional assay
rat NPRA = biological target: T2, rat NPRA; experiment: cell-based or functional assay

Binder	cGMP Assay (EC50, pM) w/BSA (human NPRA) [pM]	cGMP Assay (EC50, pM) w/Casein (human NPRA) [pM]	cGMP Assay (EC50, pM) w/BSA (rat NPRA) [pM]	cGMP Assay (EC50, pM) w/Casein (rat NPRA) [pM]
{C20 diacid}-[γGlu]EKEKEKGEK[βAla]RSSCFGGRIDRIGHYSGLGCPSLRHGGPSSGAPPPS-NH2 (bridge 15-31 via thioacetal) [Example 63]	63800	1090	785000	10600
{C20 diacid}-[γGlu]EKEKEKGS[4Pal]RRSSCFGGRIDRIGHQSGLGCPSFRHGGPPS[Aib]KPPPK-NH2 (bridge 15-31 via thioacetal) [Example 71]		594	594000	21000
SXRRSSCFGGRIDRIGHQSGLGCPSFRHGGPSSGAPPPS (HOOC-(CH2)18-CO-(γGlu)-EKEKEKG-PEG24-S-4Pal-RRSS[CFGGRIDRIGHQSGLGC]PSFRHGGPSSGAPPPS-NH2; thioacetal linkage between the bracketed Cys) [Example 61]	9000	912	463000	32000
SXRRSSCFGGRIDRIGHQSGLGCPSFRHGGKSSGAPPPS (HOOC-(CH2)18-CO-(γGlu)-EKEKEKG-(AEEA)4-S-4Pal-RRSS[CFGGRIDRIGHQSGLGC]PSFRHGGKSSGAPPPS-NH2; thioacetal linkage between the bracketed Cys) [Example 83]	38400	1040	860000	16700
SXRRSSCFGGRIDRIGHQSGLGCPSFRHGGKSSGAPPPS (HOOC-(CH2)18-CO-(γGlu)-EKEKEKG-PEG24-S-4Pal-RRSS[CFGGRIDRIGHQSGLGC]PSFRHGGKSSGAPPPS-NH2; thioacetal linkage between the bracketed Cys) [Example 75]	17000	1060	533000	23800
SXRRSSCFGGRIDRIGHQSGLGCPSFRHGGKSSGAPPPS (HOOC-(CH2)18-CO-(γGlu)-EKEKEKG-PEG12-S-4Pal-RRSS[CFGGRIDRIGHQSGLGC]PSFRHGGKSSGAPPPS-NH2; thioacetal linkage between the bracketed Cys) [Example 82]	32600	623	836000	25400
{C20 diacid}-[γGlu]EKEKEKGS[4Pal]RRSSCFGKRIDRIGHQSGLGCPSFRHGGKSSGAPPPS-NH2 (bridge 15-31 via thioacetal) [Example 79]	4580	273	261000	3440
{C20 diacid}-[γGlu]EKEKEKGS[4Pal]RRSSCFGRKIDRIGHQSGLGCPSFRHGGKSSGAPPPS-NH2 (bridge 15-31 via thioacetal) [Example 80]	4750	234	364000	3550
{C20 diacid}-[γGlu]EKEKEKGS[4Pal]RRSSCFGGRIDRIGHQSGLGCPSFRHGGPPS[Aib]KPPPK-NH2 (bridge 15-31 via thioacetal) [Example 68]		924	1.28e+06	12100
{C20 diacid}-[γGlu]EKEKEKGS[4Pal]RRSSCFGKRIDRIGHYSGLGCPSFRHGGKSSGAPPPS-NH2 (bridge 15-31 via thioacetal″; reading uncertain) [Example 81]	5710	388	127000	1910
{C20 diacid}-[γGlu]EKEKEKGEK[βAla]RSSCFGGRIDRIGHYSGLGCPSFRHGGKSSGAPPPS-NH2 (bridge 15-31 via thioacetal) [Example 76]	79900	2620	607000	8280
